Assay: yeast display, Sf9 membrane polyspecificity reagent, FACS + sequencing; frameworks hold sequencing errors
Outline: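 Polyreactivity labels are assigned by the sorting gate from which each nanobody was recovered. The gates were low and high (top ~1%), set on anti-HA fluorescence for expression and streptavidin fluorescence for reagent binding. Before sorting, galactose-induced (36–48 hours) yeast display cells were stained for 1 hour at 4 °C with 10% biotinylated, detergent-solubilized Sf9 membrane reagent.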

Sequence | polyreactivity (PSR sort gate)
QVQLVESGGGLVQAGGSLRLSCAASGSTFHLYAMGWYRQAPGKERELVADIDLSGGSTYYADSVKGRFTISRDNAKNTVYLQMNSLKPEDTAVYYCAADHVSSLGFDYWGQGTQVTVSS | low polyreactivity
QVQLVESGGGLVQAGCSLRLSCAASGFIFYDYDMGWYRQAPGKERELVAAITYSGGSTYYADSVKGRFTISRDNAKNTVYFQMNSLKPEDTAVYYCAAVKSRYAEAVDYYYWGQGTQVTVSS | low polyreactivity
QVQLVESGGGLVQAGGSLRLSCAASGITFRKYAMGWYRQAPGKERELVAGIRYSGSSTYYADSVKGRFTISRDNAKNTVYLQMNSLKPEDTAVYYCAVYGTTRYATTYDYWGQGTQVTVSS | high polyreactivity
QVQLVESGGGLVQAGGSLRLSCAASGRIFAINTMGWYRQAPGKERELVAAINNGGSTNYADSVKGRFTISRDNAKNTVYLQMNSLKPEDTAVYYCAAEGLPYVRVFDFVSRYDYWGQGTQVTVSS | low polyreactivity
QVQLVESGGGLVQAGGSLRLSCAASGRIFYVNAMGWYRQAPGKERELVATIRRGGDTNYADSVKGRFTISRDNAKNTVYLQMNSLKPEDTAVYYCASKAYQSSYQRYYWGQGTQVTVSS | high polyreactivity
QVQLVESGGGLVQAGGSLRLSCAASGRIFWPYAMGWYRQAPGKERELVAAITSGGSTYYADSVKGRFTISRDNAKNTVYLQMNSLKPEDTAVYYCNAKLRRHYDHLYDYWGQGTQVTVSS | low polyreactivity
QVQLVESGGGLVHAGGSLRLSCAASGRTFYGNAMGWYRQAPGKEREFVAGISWRGGRTYYADSVKGRFTISRDNAKNTVYLQMHSLKPEDTGVYYCNARYIYTRPRPRNYWGLGTQVTVSS | high polyreactivity
QVQLVESGGGLVQAGGSLRLTCAASGSTFADYAMGWYRQAPGKERELVAAITGDGGNTYYADSVKGRFTISRDNAKNTVYLQMNSLKPEDTAVYYCAAEHETGAYYYWGLGTQVTVSS | high polyreactivity
QVQLVESGGGLVQAGGSLRLSCAASGSTFYVYDMGCYRQAPGKEREWVAAISSGAGSTYYADSVKGRFTISRDNAKNTVYLQMNSLKRKIPRSITALLFTVNGGGSRSHDYWAQGTQVTVSS | low polyreactivity
QVQLVESGGGLVQAGGSLRLSCAAYGRTFARYAMGWYRQAPGKERELVAAISKSGVSTYYADSVKGRFTISRDHAKNTLYLQMNSLKPEDTAVYYCAAYVRQLQVVRGVSNYDSWGQGTQVTVSS | high polyreactivity
QVQLVESGGGLVQAGGSLRISCAASGGIIAINSMRCYRQAPGKERELVAAISWGDGITYYSDSVKRRFTISRDNAKYTVYLHMISLKPEDTAVYYCAADEDEYRGGDESWGQGTQVTVSA | low polyreactivity
QVQLVESGGGLVQAGGSLLLSSADSGSTFNYNAMGWYRQSHGKERELVAVINSGGSTYYADSVKGRFTISRDNAKNTVYLQMNSLKPEDTAVYYCAAATYRQQWHYYWGQGTQGTVSS | high polyreactivity
QVQLVESGGGLVKAGGSLRLSCAASGSIFDGNAMGWYRQAPGKERELVADISRGGSTYYADSVKGRFTISRDNAKNTVYLLMNSLKPEDTAVYYCNVEFFFWPYEYGYWGQGTQVTVSS | low polyreactivity
QLQLVDSGGGLVQAGGSLRLSCAATGFTFYYYVMGWYRQAPGKETELVAAISSRGGSTYYADSVKGRFTISRDNAKNTVYLQMNSLKPEDTAVYYCAATYWPYRPGYYYWGQGTQVTVSS | high polyreactivity
QVQLVESGGGLVQAGGSLRLSCAASGSTFPYYAMGWYRQAPGKERELVAAITSSTGRTYYADSVKGRFTISRDNAKNTVYFQMNSLKPEDTAVYYCNAEVYSDPYNDHDYWGQGTQVTVSS | low polyreactivity
QVRLVESGGGLVQAGGSLRLSCAASGFTFVVNAMGWYRQAPGKERELVAAITCSGGRTYYADSVKGRFTISRDNAKNTVSLQMNSLKPEDTAVYYCNAEWDDYEIEYDYWGQGTQVTVSS | low polyreactivity
QVQLVETAAGLVKSGGSLPLSCAASGRIFKRYAMGWYRQAPGQARELVATINLSCGSTYYADSVKGRFTISRDNAKNTGYLQMNSRKPEDTAVYYCAYDAAGAPEGPYDYWGQGTQVTVSS | high polyreactivity
QDQLVESGGGLVQAGGSLRLSCAASGRTFASYAMGWYRQAPGKERELVAAITSSGGRTYYADSVKGRFTISRDYAKNTVYLQMNSLKPEVTAVYYCAVRGTKGYGYWGQGTQVTVSS | high polyreactivity
QVQLVESGGGLVQAGGSLRLSCAASGSIFRGYGMGWYRQAPGKERELVAAITSGDSTNYADSVKARFTLSRDNAKTTVYLQMNSLKPEDTAVNYCAAASTGRPSVSYDYWGQGTQVTVSS | low polyreactivity
QVQLVESGGGLVQAGGSLRLSCAASGYIFIWYDMGWYRQAPGKERELVAAISGSGGSTYYADSVKGRFTISRDNAKNTVYLQMNSLKPEDTAVYYCAAYVPRGNSEVIAMDYWGQGTQVTVSS | low polyreactivity
QVQLVESGGGLVQAGGSLRLSCAASGLIFSSYAMGWYSQAPGKERELVAAITSGGNTNYADSVKGRFTISRDNAKNTVYLHMNSLKPEDTAVYYCSAVWWTYVAAPGYDYWGQGTQVTVSS | low polyreactivity

From the nanobody polyreactivity screen of Harvey et al. (2022)
